The source of these data is the DeepSol protein solubility set.

The data set can be described thus: soluble on expression in E. coli; label from the status in PepcDB or PDB records.
“MIILDNSIQTKKRTDSLSKLITVNTLGPEGTSSEYAAKHFISNFTLLQGLNSKLSLHDTFESCIERTLQSPLEYTIVPHAYDGIKHFYMRPDLQLLQIFRCDTPMYGLAVRPDFEFRDDMLDTSVIVSHPSPINLIKYFTRKDVRFKLVNSTSQAARKVKEGLYDIALTNELARQKYGLTFVKTFKSIPMSWSLFGKGDVDDENLEHHHHHH”: the “soluble on expression in E. coli” value is recorded as “not soluble”.

As to “MRIESPQNPRVKALAALKERKERERTGRFLVEGRREVERALEAGLSLETLLLGPKARPEDRALAGGAEVLELSERALARVSTRENPAQVLGVFRLPRRSLAGVTLGAAPLVLVLLGLEKPGNLGAILRAADGAGADLVLVAEGVDLFSPQVIRNSTGAVFALPVYPVAEGEAARFLEEHNLPLVAATPEGERLYWEGDYRGGVAFLLGAEDKGLPEAWKRRAQVRVRIPMRGRADSLNVAVTAALLLYEALRQRSGGAPL”, the “soluble on expression in E. coli” value is “soluble”.

As to “MGSDKIHHHHHHMKSIPSLDDLDLFARIAQAGGLAVVARQSGVSVPTLSRRMRALELQIGVHLFERGSHGYRVTALGRAFLSETRAFQAEAQRLRRMVATPLMAEVRITAGSWTSAFLAQQLPRFWQEDAQWRPAFLEADTRLDIARRGADIGIRNQRPEQAWLAGRYTGLITYAVYAISDQVRGYVVLPENQAKTPSARWVWSHHGGEVAATARSPRMVADLACAGVGQVVLPRFAAAMFPALQQVGPEIAELSHEEWLVCHHDGRHDPPVRAALEGIAAVLTDTTLRPIGA”, the “soluble on expression in E. coli” value is given as “not soluble”.

Regarding “DTGTISTEEFYNFDNWKGFGYELFEDWSRWVYDWLPDGWNLWKELDRNRSGQYHIYDPLALDLDGDGIETVAAKGFSGSLFDHNGNGIRTATGWVSADDGLLVRDLNGNGIIDNGAELFGDNTKLADGSFAKHGYAALAELDSNGDNIINAADAAFQSLRVWQDLNQDGISQANELRTLEELGIQSLDLAYKDVNKNLGNGNTLAQQGSYTKTDGTTAKMGDLLLAADNLHSRFTNKMLSISHVRENTISPFVLGCLNK”, the “soluble on expression in E. coli” value is “not soluble”.

As to “MKVTAMDIYKLLPKTNCGKCGEASCMAFAAKLSQKEAELSACPQLKGADFEKLANMLAPAVREIKIGTGDRAVTIGGDEVLYRYELTYYNPTAVAVDLSDDMDDSAFDQKLVKIKNLEFERTGEILKLNAVALRNKSGDAEKFKKAAEKLKDSEIPVILCSFDPKAMDAALDVIGSKRPLIYAATENNIDEMSELALKHNCPISLFVPNDLEKMKQLSRKLRESGVKDIVLDPGTYIGEAIGDTMDNFIMIRRLAVEEKDDDFRFPILAVPAVCWINPEEDEILTKMKEATTAAALMNRYADVMILHGVDIWEMMPVLTLRQSLYTDPRKPQSVEAKIYEFGTVDENSPVIMTTNFALTYYTVAGDLKSGKVNCYLLVLDTNGKAVDVAVAGGQFNGKAAAELMKETGIEKLVNHKKLIIPGLAASVSGDIEDQSGWEVIVGTRDSSEVPAFLAKIW”, the “soluble on expression in E. coli” value is given as “not soluble”.

As for “MGSDKIHHHHHHMSIAVTTTDPTNTGVSTTSSSSLTGSNAADLQSSFLTLLVAQLKNQDPTNPMENNELTSQLAQISTVSGIEKLNTTLGSISGQIDNSQSLQASNLIGHGVMIPGTTVLAGTGSEEGAVTTTTPFGVELQQAADKVTATITDKNGAVVRTIDIGELTAGVHSFTWDGTLTDGSTAPNGSYNVAISASNGGTQLVAQPLQFALVQGVIRGNSGNTLDLGTYGTTTLDEVRQII”, the “soluble on expression in E. coli” value is on record as “not soluble”.

On to “MSLAGVSVGTVDRVIHNRGRVSEENRKKVQTILEMVHYQPNLMARSLASKKQYHFVAITPSFTHGEYWEAISDGIDKAASEMESYNITITKLFFDQYNNKTFDDIVRNLLDEKVDGVLIATLFTDSVIRLSQELDRNEIPYVYVDSNIEGQHQLAYFGTESYDAGVIAARLLTDKISSTSDILMARIIHSGKNDSNQGKNRREGFCHYLKETGFTGNLHEVELKINDSVYNFIKLDEIFEANATIEGGIIFNSTCYILGNYLKARGMQKVKLVGYDLIERNTQLLSDGVITALVAQRPERQGYDGIKSLCNHLLFKQNPEKVNLMPIDILLKENLKYYLNNKEGHHHHHH”, for which the “soluble on expression in E. coli” value is listed as “soluble”.

Consider “TLLPQVQVLSWDHYVASSPQIYEPSLMIVAQGSKLARLGPRTLEYGAGHYLVQALSVPFMCETFATREAPLLGVAVGIDRGVLGELVQSMGLAPDAEVQAQTPQSMTSAALDAPMRESVERLLHCLQDPLDAKVLGPARVREVLYTALRGPQAGVL”, for which the “soluble on expression in E. coli” value is “not soluble”.

In the case of “MGSDKIHHHHHHMSENIRALSRGLNVLEFLSETGGATRQATVAHFGLSRPTIYRLLGTLEKSGLISLGDDGVYRPTIATRALKEGLTDDVWALWAAEPILLELQKEVVWTSEITTFDAYSCTMLKRDTTHSLNPYHINLLDFDDNHRSMLTSACGLAYLAFCPQQQRAQILEHLGHFGDRTQSDSQRPDSQRGAGAHTRNLINKVISDGYAVEQRNSYPLIAAIAVPIRYDNRVLACLSIVWLPRAVKLQDGITQFLPALKRAQSFIEQKLLDDASIEYDTNFTAKYVHHGQQHELI”, the “soluble on expression in E. coli” value was “not soluble”.

Regarding “MGSDKIHHHHHHMTVADLVAGLRESRGFRHKTDIVDVVGSLAKRLPRGKRDLAQAVALGDDCAALADGDGYLLFAIEGMVSDFVSAMPWFAGYSSVMVNVSDIYAMGGRPLAVVDALWSQGIGAAEEVLAGMAAASVAYGVPIVGGHTNTRSEAAQLAVSIIGRARALLSSFNAKPGDSLMMAVDLRGRFEEPYPFWNASVDAPPERLRADLELLPQLAENGLCDAAKDISMAGTLGTALMLLECSQVGARIDLACIPKPEGVPLERWVSAFPSFGYLLSVRPEHVETVRAKFSARSLACSVIGSVDATSQVVLHRQDDAATLWDFQREPFIIGKDEVK”, the “soluble on expression in E. coli” value was “not soluble”.

“MVKVIFFDLDDTLVDTSKLAEIARKNAIENMIRHGLPVDFETAYSELIELIKEYGSNFPYHFDYLLRRLDLPYNPKWISAGVIAYHNTKFAYLREVPGARKVLIRLKELGYELGIITDGNPVKQWEKILRLELDDFFEHVIISDFEGVKKPHPKIFKKALKAFNVKPEEALMVGDRLYSDIYGAKRVGMKTVWFRYGKHSERELEYRKYADYEIDNLESLLEVLARESSSNKKVHPPRQQI”: the “soluble on expression in E. coli” value is “soluble”.

Consider “MSLKGKITLFFTALCFGLTGCIAPPKGLEKERFSINSYREISPQDLTCHCKTVRLGGKIVNTTVLANQTKIEVLSLPVSSISAKPFVELQSDGRFIVYFNGFVEPENLKERYITVGGQLAGTEKGKIEQADYTYPVVQADKYRIWTLSTTYDYPTDDWDEDDDWGFFRWRHRLWYVQPEIHYYLNEGGSHHHHHH”, for which the “soluble on expression in E. coli” value was “soluble”.

For “MSTVRSIYYRGSLEHCNYTCSYCPFGRKSVSADTTEDQEALDRFISRIGGWKYGSLRILIIPYGEAMIHRYYREGIMRLAAMPHVIGVSCQTNLSFSVSRFLDEAEAEQADVSKFRFWASYHPEMVGVGEFASKVEMLRAAGIGVCAGAVGDPSAKEQIRKLRQLLDPSVYLFVNAMQGLRKPLSEEDIRFFGEIDNLFDYDRRNAKACLDGCVGGRETLFIDRKGDMYACPRSGIRMGNFYDDSTSDFQPFCLRKVCDCYIAFSNLCDTPLRRMMGDGALWRIPERKKVEAVFFDVDGTLTDAQGRIPDRTVSVLEYMAKRLPLYLSTALPVSHAKKRLGNVFGLFSGGVFADGGLLCYGETIECVPIANPMTAGFPGCRVTRYTREGKVFKYAVLAPNTREAVRWLTELDEEAYQLYQEGRLLTVVDSKASKKNGLITLCARLGISLREVLVVGNTMHDWPMMSVAGYSCAVMDAEEKLRKLSGYVLNPDSIPVFFDILEHHHHHH”, the “soluble on expression in E. coli” value is reported as “not soluble”.

Regarding “MKMELLLIIITQDAYIGQRFTKRSSYLCGIYDKTANTMKEPFQIPTSKDIENLIGTDLYDVWNSLCQRIEKSYEMELLWNRGGKAWTYEYKYRKGGKTLCALYAKEKTLGFMVILGKDERAKFEIQRGQFSNEVQMIYDAATTFHDGKWIMFELKDTKLFNDMERLLLIKRKPNRKAE”, the “soluble on expression in E. coli” value is “soluble”.

For “NTDELMRAVQPRVNPKLLYVIASTLRLYPLAKARLEIIRQTHITRGIDVHSIRGRWGLVLPLVVGLVDNAAQRARPLQRTGIGHSGPRTVLRPVPVMTHDVIIQVLAVCTTIAVCIWSIF”, the “soluble on expression in E. coli” value is listed as “not soluble”.

Consider “MMNQSRIKPVRMLILLRKLSPISRRIRIRNRLKQKTRSATIKSRCNPCLISVLANCYWCSSSASPPSGAATTACGGKNGSGLDSRVAFTGDNGAERTDPGVKTPGVSGQSEKG”, for which the “soluble on expression in E. coli” value is given as “not soluble”.

On to “MGSDKIHHHHHHMMFGYIKPLKCELKVKEYEEFRGYYCGVCKALKKYSIIPRFLLTYEAASLGLLLSSLNNSDLKRKKELCIFTLKKVDFYSSSEIDEVARVFTALLREKLKDNYIDRKNPVYLFASAFLKKDPEISSLFENFYEMEKKEQDFKILAEEQGKIVGTILSKMVKEETQRKILYYLGLSLGKWLYIVDALDDFEKDKRKNVFNPLVKKYNGDLEKARSELRPHLKKCIDEMWKAYDLLDIKRNKTILDNIVYLGIPFITENVLVGKTCNLNHSTIL”, for which the “soluble on expression in E. coli” value is listed as “not soluble”.

Take “SQNNEIIKPAKYFSELEKSILLALVEKYKYVLECKKSDARTIALKQRTWQALAHEYNSQPSVSLRDFKQLKKCWENIKARTKKIMAHERREKVKRSVSPLLSTHVLGKEKIASMLPEQLYFLQSPPEEEPEYHPDASAQESFAVSNRELCDDEKEFIHFPVCEGTSQPEPSCSAVRITANKNYRSKTSQEGALKKMHEEEHHQQMSILQLQLIQMNEVHVAKIQQIERECEMAEEEHRIKMEVLNKKKMYWERKLQTFTKEWPVSSFNRPFPNSP”: the “soluble on expression in E. coli” value is listed as “soluble”.

In the case of “MAHHHHHHMRKEEMNRNFQNASCKEDNYIKAWLKQTENPEFYKNLNDLDDQSYTNEFVKVVDFNNFNSNFINNMMEEPFGDEFSKQKKRKAYSLFYSNEIGPNNEENYDLKNIYTSFDDSDVKYLKSLDKTPSGNMKDRVKGRYKDEHMSIKKLKRENICNENNEPIFPNNIMMDNSPYYKFRHSNKKPSYGSESTNEFFNNYDFETPIKILSSKKKSYDFKNRKDNSTNTTKENSSRENVSSNNSETKRTINFSNKTDDFNDIPFNSDNEYISSPEYMDHEQNTKYINKKQREVNFLGQKLEYKVVGNVINCSKNHPQFTLF”, the “soluble on expression in E. coli” value is “not soluble”.

As to “MKQRILIVGAGFAGMWSALSAVRQLDRQGRDDVEVAVLAPQPELRIRPRFYEPDVQRMAAPLGELFAAVGVRFVQGSAQRIDVAGKRVEYRDAEGTLAQLDYDRLVLAAGSGVWRPASVAGIDAAFDVDQLEDALRLEAHLHALRDLPDSPARNTVVVAGGGFTGIETATEMPARLRAILGEKAALRVIVVDRGAAIGASMGADLSGLIAEASAELGVEWCLGRSVAAVDAEGVTLDDGQRIEAKTVVWTVGVRASTLTGQIPGERDAQGRLHVDRNLKVLGLDDVYATGDVARAATDDLGNHALMTCQHAIALGRSAGNNVAADLLGVEPIPYSQVKYVTCLDLGGWGAVFTEGWDRQVRFVREEGKKIKTEINGVWIYPPAADRAVALAAADPLIPVVALEHHHHHH”, the “soluble on expression in E. coli” value is “soluble”.

On to “MNDFRPNPSLLLETSWEVCNKQGGIYTVLTSRAHEMMKRHDGRIIFIGPLLTEQEDLPTDFENTVPAILEDWHRDAAPSLDLRYVCGSWRTPGSPPVVLVDFEPLHAQKATLYYEMWEHFGIQSDKGYGDYDEASLFGIAAAQTMHSLCEYLCPEDQPAIGIFNEWMLGMGLLYSKRKTPRLKTLFLTHATTTGRSIAGNNKALYAYMPGYNGDQMAAELGVEAKHGIEKAAAHQSDTFATVSELTAKECRQLLERDPMVLPNGFEPNFVPQGEEYERRRAEARKRLLHVAEHLTGKQLPADTLLIATSGRYEYRNKGIDLFIDAASEAGRSGK”, for which the “soluble on expression in E. coli” value is reported as “not soluble”.
